Assay results published in the supplement of paper PMC9170038.

Tested on: MS2 coat protein
Test: apparent KD of MS2 coat protein; designed switch direction (-1 OFF switch, 1 ON switch): -1; higher = weaker reporter binding
Method in brief: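 Three titration conditions were used: no input, 200 uM small-molecule ligand, and an oligonucleotide input. In each, SNAP-549-labelled MS2 coat protein was raised from 0.7 or 1.5 nM, doubling, to 3 µM over designed RNA switches transcribed on Illumina chips by stalled E. coli RNA polymerase. Curve fits of normalised cluster fluorescence gave values whose per-design median over clusters is the apparent KD.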

[1] = input ligand: microRNA oligo, concentration not stated
[2] = Eterna round: R95, input ligand: microRNA oligo, concentration not stated
[3] = Eterna round: R95, input ligand: FMN 200 uM
[4] = Eterna round: R95, input ligand: none

| Sequence | apparent KD of MS2 coat protein (input ligand: FMN 200 uM) [nM] | apparent KD of MS2 coat protein [1] [nM] | apparent KD of MS2 coat protein (input ligand: none) [nM] | apparent KD of MS2 coat protein [2] [nM] | apparent KD of MS2 coat protein [3] [nM] | apparent KD of MS2 coat protein [4] [nM] |
| --- | --- | --- | --- | --- | --- | --- |
| CUCGUGCAGCAAAGCUGUACGAGUACAUGAGGAUCACCCAUGUAGGAUAUGGUACGCAAAGCGUGCUAGAAGGACGUGUGUAUG [Mat - Exclusion NG 3 - Mod of JL - D91] (Eterna round: R96, puzzle: Exclusion NG 3) | 134 | 28.7 | 58 |  |  |  |
| CUCGUGUAAGGAUAUGCGAGCCACGGAAAUAAAACGUGGAGGUAGAAGGUACAUGAGGAUCACCCAUGUAAAAC [Anonveat] (puzzle: Exclusion 4) |  |  |  | 24.3 |  |  |
| CUCGUGUAAGGAUAUGCGAGCCGCGGAAAUACACCGCGGAGGUAGAAGGUACAUGAGGAUCACCCAUGUAAAAC [Edisora] (puzzle: Exclusion 4) |  |  |  | 26.6 |  |  |
| CUCUAACACGCAGGAUAUGCAUCACCAUAAUUAGCAGAAGGGCGAAACACAUGAGGAUCACCCAUGUUGAGGAUCACCCAUGAC [Default title] (Eterna round: R96, puzzle: Exclusion NG 1) | 22.1 | 19.9 | 23.6 |  |  |  |
| CUCUAGUCAGGAUAUUAGUUGCCGCCUGGACACAAGCGGCAUGAGAAGGGACUUGAGGAUCACCCAAGUAAAAG [Tibela] (Eterna round: R97, puzzle: Exclusion 4) | 2850 |  | 393 |  |  |  |
| CUCUAGUCAGGAUAUUAGUUGUCGCCCAGCAACGGGCGACAUGAGAAGGGACUUGAGGAUCACCCAAGUAAACG [Leorteti] (Eterna round: R97, puzzle: Exclusion 4) | 279 |  | 478 |  |  |  |
| CUCUCGGUAGGAUAUCCUCCGCCGAACAUGAGGAUCACCCAUGUCACUGCCACUACGCUAGGAGAAGGGCCAGACG [Eternabot (L2) Solution 55] (Eterna round: R97, puzzle: Exclusion 5) | 81.6 |  | 85.8 |  |  |  |
| CUCUGCACGCUGCGGUCCUACAUGAGGAUCACCCAUGUGGUCUGGUGGCGUGGGUCACCGGACUUGGCUCGUCUUGC [salish99_S_TOV1_R5_051] (Eterna round: R97, puzzle: Sensor, turn-off variant 1) | 21 |  | 22.7 |  |  |  |
| CUCUUAUCUUAGGAUAUUUUACCGCAAGUGGUGGGAGAAGGGAGCACAUGAGGAUCACCCAUGUUAGCUGGGCU [Eternabot (L2) Solution 19] (Eterna round: R97, puzzle: Exclusion 6) | 22.1 |  | 20.5 |  |  |  |
| CUCUUGGCAGGAUAUGCAAUUUUAGACAUGAGGAUCACCCAUGUGAUCAUUCCAUAUUAUGCAGAAGGGCCUAAAC [JR_E5_Sub049] (Eterna round: R96, puzzle: Exclusion 5) | 238 | 27.4 | 39.2 |  |  |  |
| CUCUUGGCAGGAUAUGCAAUUUUAGACAUGAGGAUCACCCAUGUGAUCAUUCCAUAUUAUGCAGAAGGGCCUAAAC [JR_E5_Sub049] (puzzle: Exclusion 5) |  |  |  | 54.3 |  |  |
| CUCUUGUUAGGAUAUCAAACCAGCGGCGGAACCGCUGGAAGUGAGAAGGGACAUGAGGAUCACCCAUGUAAGAA [Usrebiis] (puzzle: Exclusion 4) |  |  |  | 39.3 | 161 | 64.8 |
| CUCUUGUUAGGAUAUCAAACCGGCGGCGGAGCCACCGGAAGUGAGAAGGGACAUGAGGAUCACCCAUGUAAGAA [Islaariste] (puzzle: Exclusion 4) |  |  |  | 60.9 | 220 | 67.3 |
| CUGAACAUAGGAUAUACAUGAGGAUCACCCAUGUAUAUAAAAGGGUGUUCCAACUAAAGUAGAAGGAUGUAUAG [ExFusion 4 - Jieux - Exclusion 3] (Eterna round: R97, puzzle: Exclusion 3) | 45.1 |  | 57.8 |  |  |  |
| CUGAGCAGACGGAAAUCCAACAUGAGGAUCACCCAUGUCUCAAAAGCUUUUUGCUCGUCUUAUCCUCCUCUGUUCUC [Tiardia] (puzzle: Sensor v3, turn-off variant 1) |  |  |  | 138 | 24.1 | 21.1 |
| CUGAGCAGACGGAGAUCCAACAUGAGGAUCACCCAUGUCUCAAAAGCUUUUUGCUCGUCUUAUCCUCCUCUGCUCAC [Geesbeleri] (puzzle: Sensor v3, turn-off variant 1) |  |  |  | 21.8 | 11.2 | 12.5 |
| CUGAGCAGACGGAGAUCCAACAUGAGGAUCACCCAUGUCUCAAAAGCUUUUUGCUUAAACGUCUUAUCUCUGUUCAC [Esquitian 5] (Eterna round: R97, puzzle: Sensor, turn-off variant 1) | 35.7 |  | 33.8 |  |  |  |
| CUGAGCAGACGGAGAUCCAACAUGAGGAUCACCCAUGUCUCAAAAGCUUUUUGCUUGUCUUACUCUCCUCUGUUCUC [Atenve] (puzzle: Sensor v3, turn-off variant 1) |  |  |  | 103 | 13.9 | 11.3 |
| CUGAGCAGACGGAGAUCCAACAUGAGGAUCACCCAUGUCUCAAAAGCUUUUUGCUUGUCUUAUCCUCCUCUGUUCUC [Xegean] (puzzle: Sensor v3, turn-off variant 1) |  |  |  | 248 | 14.6 | 12.7 |
| CUGAGCAGACGGAGAUCCAACAUGAGGAUCACCCAUGUCUCACAAGCUUUUUGCUUGUCUUAUUCUCCUCUGUUCUC [Leveasodi] (puzzle: Sensor v3, turn-off variant 1) |  |  |  | 16.6 | 12.8 | 12.1 |
| CUGAGCUGAGGAUAUACAUGAGGAUCACCCAUGUAAAGCAGCUUGCGUACAAGCAGAUGUAGAAGGCAGUUCGG [Mod of JL 17 - Jieux - Exclusion 3] (Eterna round: R97, puzzle: Exclusion 3) | 24.1 |  | 14.7 |  |  |  |
| CUGAGCUGAGGAUAUACAUGAGGAUCACCCAUGUGUUAGAGCUUGCGUACAGGCAGAUGUAGAAGGCAGUUCGG [JL-ex3-3.33 Brourd mod] (puzzle: Exclusion 3) |  |  |  | 14.5 |  |  |
| CUGAGGUAAGGAUAUAGGAGAGAAGAUAAGGUAUGAGAGUUCUAGAAGGUACAUGAGGAUCACCCAUGUUAGGG [JR_Exclu4_Sub087] (puzzle: Exclusion 4) |  |  |  | 252 |  |  |
| CUGAGGUAGCGGUCCUAUAACAUGAGGAUCACCCAUGUACCUUGCUUCGAGCUUUUAGCUCGUCUUAUGAUUCUCGG [Mat - Sensor v3 - turn-off var 1 - JL Mod - D37] (puzzle: Sensor v3, turn-off variant 1) |  |  |  | 502 | 443 | 560 |
| CUGAGGUAGCGGUCCUAUGACAUGAGGAUCACCCAUGUACCUCGCUACGAGCUUUUUGCUCGUCUUAUAAUUCUCGG [JL Atriat mod 2] (puzzle: Sensor v3, turn-off variant 1) |  |  |  | 141 | 573 | 643 |
| CUGAGGUAGCGGUCCUAUGACAUGAGGAUCACCCAUGUACCUUGCUUCGAGCAUUUUGCUCGUCUUAUGAUUCUCGG [Mat - Sensor v3 - turn-off var 1 - JL Mod - D35] (puzzle: Sensor v3, turn-off variant 1) |  |  |  | 481 | 450 | 507 |
